This series concerns the molecule itself. Put plainly: SEC. Background: Size exclusion chromatography separates by hydrodynamic size, large species first.

One protein from article doi:10.1101/2023.10.16.562645 (bioRxiv, 2023) can be followed below.

B1: Bacillus subtilis YsiA (natural protein, B. subtilis, UniProt P94548 1-194, looked up)
chain: MKQKRPKYMQIIDAAVEVIAENGYHQSQVSKIAKQAGVADGTIYLYFKNKEDILISLFKEKMGQFIERMEEDIKEKATAKEKLALVISKHFSLLAGDHNLAIVTQLELRQSNLELRQKINEILKGYLNILDGILTEGIQSGEIKEGLDVRLARQMIFGTIDETVTTWVMNDQKYDLVALSNSVLELLVSGIHNK
For the protein B1, the “stoichiometry N” value amounted to 2.

Broadly, the stoichiometry N is a count of units in the complex or per binding partner.
